From US6423518B1, “Design and production of mutant 2,5-diketo-D-gluconic acid reductase enzymes with altered cofactor dependency” (Rutgers, the State University, priority 2000, dated 2002)

What was measured:
[1] = substrate: O=C(O)C(=O)[C@@H](O)[C@H](O)C(=O)CO; assay: purified protein, by the assay type; type: biochemical, Corynebacterium sp.; conditions: other: Kb = Michaelis constant for 2,5-diketo-D-gluconic acid, cofactor NADH, pH 7.0, 25° C
Protocol: Cells containing plasmids for some of the mutant reductases were grown up on a 1 liter scale using a 10 ml inoculum from a saturated overnight culture. The cells were grown until absorbance of the culture at 600 nm was approximately 1.0. The cells were then induced by adding IPTG to a final concentration of 1 mM. The cells were harvested after growth at 37° C. for 4 hours. The cells were then pelleted by centrifugation and frozen for later use. At a later date, cells were thawed and lysed with the Bug Buster detergent (Novagen) containing Complete Protease Inhibitor Cocktail Tablets (Roche). […]
These reactions were performed in 96-well microtiter plates using a SpectraMax 190 plate reader (Molecular Devices). […] Initial rate data was collected in each well, and a standard curve was generated each day in order to correlate the change in absorbance of the reaction to a change in concentration of cofactors. […]

[2] = substrate: O=C(O)C(=O)[C@@H](O)[C@H](O)C(=O)CO; assay: purified protein, by the assay type; type: biochemical, Corynebacterium sp.; conditions: other: Kb = Michaelis constant for 2,5-diketo-D-gluconic acid, cofactor NADH, pH 7.0, 25° C; remark: listed apart in the source
Protocol: The activities of the purified enzymes were assayed in 96-well microtiter plates on a plate reader.
Equation (1) is: [formula]
B=2,5-diketo-D-gluconic acid concentration;
Kb=Michaelis Constant for 2,5-diketo-D-gluconic acid;
Kia=Dissociation Constant for NADH;
Et=Total enzyme concentration.
However, the parameters could not be fit in this model with any accuracy, due to the large apparent value of KM for 2,5-diketo-D-gluconic acid, and the low concentration of 2,5-diketo-D-gluconic acid that was used. The 2,5-diketo-D-gluconic acid concentrations were not large enough to saturate the enzyme, so a further mathematical simplification was required. Preliminary fitting of the model indicated both kcat and Kb to be very large in comparison to Ka and Kia Therefore, the rate equation was simplified to the following equation (2): [formula]
This equation is only valid when B<<Kb.
This equation was then used to fit the kinetic data, with much better results.
Other comparisons can also be made between the different mutants using these parameters. […]
Cells containing plasmids for some of the mutant reductases were grown up on a 1 liter scale using a 10 ml inoculum from a saturated overnight culture. The cells were grown until absorbance of the culture at 600 nm was approximately 1.0. The cells were then induced by adding IPTG to a final concentration of 1 mM. The cells were harvested after growth at 37° C. for 4 hours. The cells were then pelleted by centrifugation and frozen for later use. At a later date, cells were thawed and lysed with the Bug Buster detergent (Novagen) containing Complete Protease Inhibitor Cocktail Tablets (Roche). The pH was lowered to 5.5 with 20 mM sodium acetate (NaOAc) and NaCl was added to a final concentration of 0.15 M. After 10 minutes with the detergent, the cell debris was removed by centrifugation, and the supernatant was loaded onto disposable chromatography columns containing a 10 ml bed volume of DEAE Cellulose (Sigma) for a batch weak ion exchange step. The resin was washed with 0.15 M NaCl, still in the presence of NaOAc, pH 5.5. The bound proteins were then eluted by two washes with 0.5 M NaCl. The eluted material was then diluted back to 0.15 M NaCl by the addition of more 20 mM NaOAc buffer. This was then loaded onto a 4.6 mmD/100mml PEEK column (PerSeptive Biosystems) containing 50 μm DEAE Ceramic HyperD F resin (BioSepra) using an FPLC system. The high performance resin was washed with 0.1 M NaCl and the bound proteins were eluted using a linear salt gradient up to 0.4 M NaCl. Active fractions were pooled and the pH was raised to 7.0 using 50 mM bis-Tris. The pooled fractions were then concentrated by ultrafiltration in a stirred cell unit using a polyethersulfone membrane with a 10,000 MW cut-off (Millipore). The concentrate was loaded onto a Superdex-75 gel filtration column (Pharmacia) using 50 mM bis-Tris pH 7.0 with an FPLC system. The active fractions were again pooled. A small sample from the pooled fractions was electrophoresed on a polyacrylamide gel in the presence of SDS in order to insure homogeneity of the final product.
NADPH and NADH were prepared fresh for each use in kinetic measurements. These reactions were performed in 96-well microtiter plates using a SpectraMax 190 plate reader (Molecular Devices). Varying amounts of cofactor and substrate were added to the wells and reaction was initiated by the addition of the mutant enzyme. The final volume of each reaction was 200 μl, the reactions were buffered with 50 mM bis-Tris pH 7.0, and the temperature was held at 25° C. […] Initial rate data was collected in each well, and a standard curve was generated each day in order to correlate the change in absorbance of the reaction to a change in concentration of cofactors. All measurements were performed in triplicate (at least) and the runs were averaged for use in kinetic modeling.

Protein	kcat/Km [1]	kcat/Km [2]
2,5-diketo-D-gluconic acid reductase A (Corynebacterium sp., wild type SEQ ID NO:1) variant K232M (Corynebacterium sp. ATCC 31090; K232M) (protein, GroES fragment (N); made in house; host or cells: E. coli JM109) MTVPSIVLNDGNSIPQLGYGVFKVPPADTQRAVEEALEVGYRHIDTAAIYGNEEGVGAAIAASGIARDDLFITTKLWNDRHDGDEPAAAIAESLAKLALDQVDLYLVHWPTPAADNYVHAWEKMIELRAAGLTRSIGVSNHLVPHLERIVAATGVVPAVNQIELHPAYQQREITDWAAAHDVKIESWGPLGQGKYDLFGAEPVTAAAAAHGKTPAQAVLRWHLQKGFVVFPMSVRRERLEENLDVFDFDLTDTEIAAIDAMDPGDGSGRVSAHPDEVD	0.593 ± 0.023 min^−1/mm^−1	–
2,5-diketo-D-gluconic acid reductase A (Corynebacterium sp., wild type SEQ ID NO:1) variant K232G (Corynebacterium sp. ATCC 31090; K232G) (protein, GroES fragment (N); made in house; host or cells: E. coli JM109) MTVPSIVLNDGNSIPQLGYGVFKVPPADTQRAVEEALEVGYRHIDTAAIYGNEEGVGAAIAASGIARDDLFITTKLWNDRHDGDEPAAAIAESLAKLALDQVDLYLVHWPTPAADNYVHAWEKMIELRAAGLTRSIGVSNHLVPHLERIVAATGVVPAVNQIELHPAYQQREITDWAAAHDVKIESWGPLGQGKYDLFGAEPVTAAAAAHGKTPAQAVLRWHLQKGFVVFPGSVRRERLEENLDVFDFDLTDTEIAAIDAMDPGDGSGRVSAHPDEVD	–	0.874 ± 0.028 min^−1/mm^−1
2,5-diketo-D-gluconic acid reductase A (Corynebacterium sp., wild type SEQ ID NO:1) variant K232Q (Corynebacterium sp. ATCC 31090; K232Q) (protein, GroES fragment (N); made in house; host or cells: E. coli JM109) MTVPSIVLNDGNSIPQLGYGVFKVPPADTQRAVEEALEVGYRHIDTAAIYGNEEGVGAAIAASGIARDDLFITTKLWNDRHDGDEPAAAIAESLAKLALDQVDLYLVHWPTPAADNYVHAWEKMIELRAAGLTRSIGVSNHLVPHLERIVAATGVVPAVNQIELHPAYQQREITDWAAAHDVKIESWGPLGQGKYDLFGAEPVTAAAAAHGKTPAQAVLRWHLQKGFVVFPQSVRRERLEENLDVFDFDLTDTEIAAIDAMDPGDGSGRVSAHPDEVD	0.634 ± 0.037 min^−1/mm^−1	–
2,5-diketo-D-gluconic acid reductase A (Corynebacterium sp., wild type SEQ ID NO:1) variant R238E (Corynebacterium sp. ATCC 31090; R238E) (protein, GroES fragment (N); made in house; host or cells: E. coli JM109) MTVPSIVLNDGNSIPQLGYGVFKVPPADTQRAVEEALEVGYRHIDTAAIYGNEEGVGAAIAASGIARDDLFITTKLWNDRHDGDEPAAAIAESLAKLALDQVDLYLVHWPTPAADNYVHAWEKMIELRAAGLTRSIGVSNHLVPHLERIVAATGVVPAVNQIELHPAYQQREITDWAAAHDVKIESWGPLGQGKYDLFGAEPVTAAAAAHGKTPAQAVLRWHLQKGFVVFPKSVRREELEENLDVFDFDLTDTEIAAIDAMDPGDGSGRVSAHPDEVD	–	1.49 ± 0.24 min^−1/mm^−1
2,5-diketo-D-gluconic acid reductase A (Corynebacterium sp., wild type SEQ ID NO:1) variant R235G (Corynebacterium sp. ATCC 31090; R235G) (protein, GroES fragment (N); made in house; host or cells: E. coli JM109) MTVPSIVLNDGNSIPQLGYGVFKVPPADTQRAVEEALEVGYRHIDTAAIYGNEEGVGAAIAASGIARDDLFITTKLWNDRHDGDEPAAAIAESLAKLALDQVDLYLVHWPTPAADNYVHAWEKMIELRAAGLTRSIGVSNHLVPHLERIVAATGVVPAVNQIELHPAYQQREITDWAAAHDVKIESWGPLGQGKYDLFGAEPVTAAAAAHGKTPAQAVLRWHLQKGFVVFPKSVGRERLEENLDVFDFDLTDTEIAAIDAMDPGDGSGRVSAHPDEVD	–	3.58 ± 0.023 min^−1/mm^−1
2,5-diketo-D-gluconic acid reductase A (Corynebacterium sp., wild type SEQ ID NO:1) variant R238H (Corynebacterium sp. ATCC 31090; R238H) (protein, GroES fragment (N); made in house; host or cells: E. coli JM109) MTVPSIVLNDGNSIPQLGYGVFKVPPADTQRAVEEALEVGYRHIDTAAIYGNEEGVGAAIAASGIARDDLFITTKLWNDRHDGDEPAAAIAESLAKLALDQVDLYLVHWPTPAADNYVHAWEKMIELRAAGLTRSIGVSNHLVPHLERIVAATGVVPAVNQIELHPAYQQREITDWAAAHDVKIESWGPLGQGKYDLFGAEPVTAAAAAHGKTPAQAVLRWHLQKGFVVFPKSVRREHLEENLDVFDFDLTDTEIAAIDAMDPGDGSGRVSAHPDEVD	–	3.87 ± 0.13 min^−1/mm^−1
2,5-diketo-D-gluconic acid reductase A, wild type, Corynebacterium sp. (ATCC Strain No. 31090; Genbank Accession No. 4699594; SEQ ID NO:1) (Corynebacterium sp. … (protein, GroES fragment (N); made in house; host or cells: E. coli JM109) MTVPSIVLNDGNSIPQLGYGVFKVPPADTQRAVEEALEVGYRHIDTAAIYGNEEGVGAAIAASGIARDDLFITTKLWNDRHDGDEPAAAIAESLAKLALDQVDLYLVHWPTPAADNYVHAWEKMIELRAAGLTRSIGVSNHLVPHLERIVAATGVVPAVNQIELHPAYQQREITDWAAAHDVKIESWGPLGQGKYDLFGAEPVTAAAAAHGKTPAQAVLRWHLQKGFVVFPKSVRRERLEENLDVFDFDLTDTEIAAIDAMDPGDGSGRVSAHPDEVD	–	0.724 ± 0.026 min^−1/mm^−1
2,5-diketo-D-gluconic acid reductase A (Corynebacterium sp., wild type SEQ ID NO:1) variant R235T (Corynebacterium sp. ATCC 31090; R235T) (protein, GroES fragment (N); made in house; host or cells: E. coli JM109) MTVPSIVLNDGNSIPQLGYGVFKVPPADTQRAVEEALEVGYRHIDTAAIYGNEEGVGAAIAASGIARDDLFITTKLWNDRHDGDEPAAAIAESLAKLALDQVDLYLVHWPTPAADNYVHAWEKMIELRAAGLTRSIGVSNHLVPHLERIVAATGVVPAVNQIELHPAYQQREITDWAAAHDVKIESWGPLGQGKYDLFGAEPVTAAAAAHGKTPAQAVLRWHLQKGFVVFPKSVTRERLEENLDVFDFDLTDTEIAAIDAMDPGDGSGRVSAHPDEVD	–	1.34 ± 0.28 min^−1/mm^−1
2,5-diketo-D-gluconic acid reductase A (Corynebacterium sp., wild type SEQ ID NO:1) variant K232S (Corynebacterium sp. ATCC 31090; K232S) (protein, GroES fragment (N); made in house; host or cells: E. coli JM109) MTVPSIVLNDGNSIPQLGYGVFKVPPADTQRAVEEALEVGYRHIDTAAIYGNEEGVGAAIAASGIARDDLFITTKLWNDRHDGDEPAAAIAESLAKLALDQVDLYLVHWPTPAADNYVHAWEKMIELRAAGLTRSIGVSNHLVPHLERIVAATGVVPAVNQIELHPAYQQREITDWAAAHDVKIESWGPLGQGKYDLFGAEPVTAAAAAHGKTPAQAVLRWHLQKGFVVFPSSVRRERLEENLDVFDFDLTDTEIAAIDAMDPGDGSGRVSAHPDEVD	–	0.318 ± 0.018 min^−1/mm^−1
